Experimental data published in patent publication US20150258180A1 (UNIVERSITY OF MANITOBA, published 2015).

Tests used:
[1] = biological target: T1, human GM2 activator protein (GM2AP), recombinant, P17900
T1 chain: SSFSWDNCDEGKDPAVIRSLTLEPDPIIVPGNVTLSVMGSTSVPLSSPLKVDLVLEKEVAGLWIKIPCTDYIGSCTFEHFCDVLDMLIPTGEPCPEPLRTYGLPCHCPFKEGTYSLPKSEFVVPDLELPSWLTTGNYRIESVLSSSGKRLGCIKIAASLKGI

[2] = biological target: plasma membrane mannose-6-phosphate receptor of human Tay-Sachs fibroblasts (human, UniProt P11717 41-2491); assay: cell-based or functional assay
Sequence of plasma membrane mannose-6-phosphate receptor of human Tay-Sachs fibroblasts (P11717 41-2491): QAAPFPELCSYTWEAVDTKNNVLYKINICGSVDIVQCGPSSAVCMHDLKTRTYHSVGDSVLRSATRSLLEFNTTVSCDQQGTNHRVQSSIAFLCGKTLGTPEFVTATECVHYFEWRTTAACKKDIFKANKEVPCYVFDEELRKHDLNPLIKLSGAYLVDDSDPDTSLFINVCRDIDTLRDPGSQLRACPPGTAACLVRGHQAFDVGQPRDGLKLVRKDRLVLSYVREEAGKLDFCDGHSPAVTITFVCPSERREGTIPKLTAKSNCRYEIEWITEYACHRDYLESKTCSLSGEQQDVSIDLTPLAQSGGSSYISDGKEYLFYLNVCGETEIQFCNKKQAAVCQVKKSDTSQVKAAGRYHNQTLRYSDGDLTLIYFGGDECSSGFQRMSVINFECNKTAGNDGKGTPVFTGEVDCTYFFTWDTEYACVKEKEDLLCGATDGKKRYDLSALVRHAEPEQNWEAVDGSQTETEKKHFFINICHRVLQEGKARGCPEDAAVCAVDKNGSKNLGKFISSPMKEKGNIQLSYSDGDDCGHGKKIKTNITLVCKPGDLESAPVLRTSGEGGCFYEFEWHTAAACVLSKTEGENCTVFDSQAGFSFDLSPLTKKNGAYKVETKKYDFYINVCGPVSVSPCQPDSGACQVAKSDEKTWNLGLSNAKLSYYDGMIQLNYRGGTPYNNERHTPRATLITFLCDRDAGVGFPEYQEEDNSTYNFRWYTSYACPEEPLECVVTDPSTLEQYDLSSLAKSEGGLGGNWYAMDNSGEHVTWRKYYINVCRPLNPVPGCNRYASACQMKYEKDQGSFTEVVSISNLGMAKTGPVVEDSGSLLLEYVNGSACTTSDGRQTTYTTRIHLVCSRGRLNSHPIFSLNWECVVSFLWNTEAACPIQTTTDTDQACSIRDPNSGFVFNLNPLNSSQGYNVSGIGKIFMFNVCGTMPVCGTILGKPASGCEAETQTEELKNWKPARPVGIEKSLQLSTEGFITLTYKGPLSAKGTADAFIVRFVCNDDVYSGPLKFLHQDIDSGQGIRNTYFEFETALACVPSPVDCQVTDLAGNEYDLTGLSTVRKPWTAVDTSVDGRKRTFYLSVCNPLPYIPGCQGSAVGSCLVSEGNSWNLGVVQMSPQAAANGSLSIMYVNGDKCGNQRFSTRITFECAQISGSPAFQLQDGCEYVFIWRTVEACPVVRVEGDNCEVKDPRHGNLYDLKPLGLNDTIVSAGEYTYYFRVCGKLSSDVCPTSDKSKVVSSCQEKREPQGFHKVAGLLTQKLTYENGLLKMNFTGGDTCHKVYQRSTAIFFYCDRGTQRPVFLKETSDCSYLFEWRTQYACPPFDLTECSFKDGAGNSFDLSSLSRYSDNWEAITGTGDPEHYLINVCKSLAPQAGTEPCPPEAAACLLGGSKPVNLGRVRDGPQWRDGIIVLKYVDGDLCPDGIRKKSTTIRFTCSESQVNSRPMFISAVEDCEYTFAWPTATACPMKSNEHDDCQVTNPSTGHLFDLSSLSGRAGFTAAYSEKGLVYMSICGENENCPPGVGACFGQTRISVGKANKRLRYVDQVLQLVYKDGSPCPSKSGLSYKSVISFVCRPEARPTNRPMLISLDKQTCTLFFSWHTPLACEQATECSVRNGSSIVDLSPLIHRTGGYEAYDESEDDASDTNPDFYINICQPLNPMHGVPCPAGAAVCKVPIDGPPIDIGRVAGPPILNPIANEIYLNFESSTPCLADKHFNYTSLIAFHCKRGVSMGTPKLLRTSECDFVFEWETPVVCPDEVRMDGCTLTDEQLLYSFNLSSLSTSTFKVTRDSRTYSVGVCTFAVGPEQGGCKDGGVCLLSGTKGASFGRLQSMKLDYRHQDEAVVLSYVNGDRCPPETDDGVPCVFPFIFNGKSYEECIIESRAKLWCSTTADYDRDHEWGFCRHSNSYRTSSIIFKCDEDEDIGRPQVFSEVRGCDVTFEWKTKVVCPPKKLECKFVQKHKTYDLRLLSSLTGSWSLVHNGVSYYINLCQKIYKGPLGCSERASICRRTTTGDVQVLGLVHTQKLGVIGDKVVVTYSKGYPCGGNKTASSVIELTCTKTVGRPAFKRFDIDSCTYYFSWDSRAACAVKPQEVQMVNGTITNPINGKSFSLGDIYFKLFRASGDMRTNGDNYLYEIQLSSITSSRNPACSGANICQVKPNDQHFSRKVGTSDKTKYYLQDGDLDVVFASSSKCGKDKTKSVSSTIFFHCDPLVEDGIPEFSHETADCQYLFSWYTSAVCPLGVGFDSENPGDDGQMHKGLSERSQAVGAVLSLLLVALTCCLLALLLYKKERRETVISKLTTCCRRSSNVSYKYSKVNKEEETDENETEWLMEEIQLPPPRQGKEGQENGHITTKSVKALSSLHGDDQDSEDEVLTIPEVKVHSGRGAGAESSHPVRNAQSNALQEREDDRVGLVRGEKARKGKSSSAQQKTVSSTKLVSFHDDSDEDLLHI

B1: Hex A (β-hexosaminidase A), purified from human placenta (protein)
chain 1: LWPWPQNFQTSDQRYVLYPNNFQFQYDVSSAAQPGCSVLDEAFQRYRDLLFGSGSWPRPYLTGKRHTLEKNVLVVSVVTPGCNQLPTLESVENYTLTINDDQCLLLSETVWGALRGLETFSQLVWKSAEGTFFINKTEIEDFPRFPHRGLLLDTSRHYLPLSSILDTLDVMAYNKLNVFHWHLVDDPSFPYESFTFPELMRKGSYNPVTHIYTAQDVKEVIEYARLRGIRVLAEFDTPGHTLSWGPGIPGLLTPCYSGSEPSGTFGPVNPSLNNTYEFMSTFFLEVSSVFPDFYLHLGGDEVDFTCWKSNPEIQDFMRKKGFGEDFKQLESFYIQTLLDIVSSYGKGYVVWQEVFDNKVKIQPDTIIQVWREDIPVNYMKELELVTKAGFRALLSAPWYLNRISYGPDWKDFYIVEPLAFEGTPEQKALVIGGEACMWGEYVDNTNLVPRLWPRAGAVAERLWSNKLTSDLTFAYERLSHFRCELLRRGVQAQPLNVGFCEQEFEQT
chain 2: TQVQQLLVSITLQSECDAFPNISSDESYTLLVKEPVAVLKANRVWGALRGLETFSQLVYQDSYGTFTINESTIIDSPRFSHRGILIDTSRHYLPVKIILKTLDAMAFNKFNVLHWHIVDDQSFPYQSITFPELSNKGSYSLSHVYTPNDVRMVIEYARLRGIRVLPEFDTPGHTLSWGKGQKDLLTPCYSRQNKLDSFGPINPTLNTTYSFLTTFFKEISEVFPDQFIHLGGDEVEFKCWESNPKIQDFMRQKGFGTDFKKLESFYIQKVLDIIATINKGSIVWQEVFDDKAKLAPGTIVEVWKDSAYPEELSRVTASGFPVILSAPWYLDLISYGQDWRKYYKVEPLDFGGTQKQKQLFIGGEACLWGEYVDATNLTPRLWPRASAVGERLWSSKDVRDMDDAYDRLTRHRCRMVERGIAAQPLYAGYCNHENM
For B1, the “detectable NBD-GM3 in the in vitro NBD-GM2 hydrolysis assay with human GM2AP” value [1] was “Only the assay containing Hex A or the variant protein produced detectable levels of NBD-GM3”.

B2: Hex B (β-hexosaminidase B), purified from human placenta (protein)
chain: TQVQQLLVSITLQSECDAFPNISSDESYTLLVKEPVAVLKANRVWGALRGLETFSQLVYQDSYGTFTINESTIIDSPRFSHRGILIDTSRHYLPVKIILKTLDAMAFNKFNVLHWHIVDDQSFPYQSITFPELSNKGSYSLSHVYTPNDVRMVIEYARLRGIRVLPEFDTPGHTLSWGKGQKDLLTPCYSRQNKLDSFGPINPTLNTTYSFLTTFFKEISEVFPDQFIHLGGDEVEFKCWESNPKIQDFMRQKGFGTDFKKLESFYIQKVLDIIATINKGSIVWQEVFDDKAKLAPGTIVEVWKDSAYPEELSRVTASGFPVILSAPWYLDLISYGQDWRKYYKVEPLDFGGTQKQKQLFIGGEACLWGEYVDATNLTPRLWPRASAVGERLWSSKDVRDMDDAYDRLTRHRCRMVERGIAAQPLYAGYCNHENM
For B2, the “detectable NBD-GM3 in the in vitro NBD-GM2 hydrolysis assay with human GM2AP (none for Hex B, the negative control)” value [1] was “Only the assay containing Hex A or the variant protein produced detectable levels of NBD-GM3”.

B3: mature variant α-subunit homodimer (500 mM NaCl DEAE fraction) (protein)
chain: LWPWPQNFQTSDQRYVLYPNNFQFQYDVSSAAQPGCSVLDEAFQRYRDLLFGSGSWPRPYLTGKRHTLEKNVLVVSVVTPGCNQLPTLESVENYTLTINDDQCLLLSETVWGALRGLETFSQLVWKSAEGTFFINKTEIEDFPRFPHRGLLLDTSRHYLPLKSILDTLDVMAYNKLNVFHWHLVDDQSFPYESFTFPELMRKGSYSLSHIYTAQDVKEVIEYARLRGIRVLAEFDTPGHTLSWGPGIPGLLTPCYSGSEPSGTFGPVNPSLNNTYEFMSTFFLEVSSVFPDFYLHLGGDEVDFTCWKSNPEIQDFMRKKGFGEDFKQLESFYIQTLLDIVSSYGKGYVVWQEVFDNKVKIQPDTIIQVWREDIPVNYMKELELVTKAGFRALLSAPWYLNRISYGQDWRKFYKVEPLAFEGTPEQKALVIGGEACMWGEYVDATNLVPRLWPRAGAVAERLWSNKLTRDMDDAYDRLSHFRCELVRRGVAAQPLYAGYCNQEFEQT
In the case of B3, the “NBD-GM3 produced in the overnight in vitro NBD-GM2 hydrolysis assay (liposomes plus rGM2AP), against Hex A at the same number of MUG units” value [1] is reported as “the variant protein produces at least twice as much NBD-GM3 as Hex A” and the “detectable NBD-GM3 in the in vitro NBD-GM2 hydrolysis assay with human GM2AP” value [1] is reported as “Only the assay containing Hex A or the variant protein produced detectable levels of NBD-GM3”.

B4: secreted variant β-hexosaminidase protein in conditioned media (enzyme)
chain: LWPWPQNFQTSDQRYVLYPNNFQFQYDVSSAAQPGCSVLDEAFQRYRDLLFGSGSWPRPYLTGKRHTLEKNVLVVSVVTPGCNQLPTLESVENYTLTINDDQCLLLSETVWGALRGLETFSQLVWKSAEGTFFINKTEIEDFPRFPHRGLLLDTSRHYLPLKSILDTLDVMAYNKLNVFHWHLVDDQSFPYESFTFPELMRKGSYSLSHIYTAQDVKEVIEYARLRGIRVLAEFDTPGHTLSWGPGIPGLLTPCYSGSEPSGTFGPVNPSLNNTYEFMSTFFLEVSSVFPDFYLHLGGDEVDFTCWKSNPEIQDFMRKKGFGEDFKQLESFYIQTLLDIVSSYGKGYVVWQEVFDNKVKIQPDTIIQVWREDIPVNYMKELELVTKAGFRALLSAPWYLNRISYGQDWRKFYKVEPLAFEGTPEQKALVIGGEACMWGEYVDATNLVPRLWPRAGAVAERLWSNKLTRDMDDAYDRLSHFRCELVRRGVAAQPLYAGYCNQEFEQT
modifications: mannose-6-phosphate on Asn-linked oligosaccharides
For B4, the “fold increase in intracellular MUGS activity of untransfected TSD fibroblasts grown in conditioned media” value [2] was ~38 fold and the “fold increase in intracellular MUGS activity of untransfected TSD fibroblasts grown in conditioned media containing 5 mM mannose-6-phosphate” value [2] was ~10 fold.
